Values quoted from earlier work in PMC6824834.

Molecular target: Glu165 (UniProt position 165, VVVAYEPVWAI)
Conditions: substrate-bound, closed (desolvated) active site

For “Triosephosphate isomerase (TIM) (Not stated for the quoted values; residue numbering is that of Saccharomyces cerevisiae TIM (yTIM))”, the pKa is given as >6.
